B1: Serine/threonine-protein phosphatase 5 (Mus musculus), Q60676 (parent)
chain: MAMAEGERTECAETPRDEPPADGTLKRAEELKTQANDYFKAKDYENAIKFYSQAIELNPGNAIYYGNRSLAYLRTECYGYALGDATRAIELDKKYIKGYYRRAASNMALGKFRAALRDYETVVKVKPNDKDAKMKYQECSKIVKQKAFERAIAGDEHRRSVVDSLDIESMTIEDEYSGPKLEDGKVTITFMKDLMQWYKDQKKLHRKCAYQILVQVKEVLCKLSTLVETTLKETEKITVCGDTHGQFYDLLNIFELNGLPSETNPYIFNGDFVDRGSFSVEVILTLFGFKLLYPDHFHLLRGNHETDNMNQIYGFEGEVKAKYTAQMYELFSEVFEWLPLAQCINGKVLIMHGGLFSEDGVTLDDIRKIERNRQPPDSGPMCDLLWSDPQPQNGRSVSKRGVSCQFGPDVTKAFLEENQLDYIIRSHEVKAEGYEVAHGGRCVTVFSAPNYCDQMGNKASYIHLQGSDLRPQFHQFTAVPHPNVKPMAYANTLLQLGMM
partner: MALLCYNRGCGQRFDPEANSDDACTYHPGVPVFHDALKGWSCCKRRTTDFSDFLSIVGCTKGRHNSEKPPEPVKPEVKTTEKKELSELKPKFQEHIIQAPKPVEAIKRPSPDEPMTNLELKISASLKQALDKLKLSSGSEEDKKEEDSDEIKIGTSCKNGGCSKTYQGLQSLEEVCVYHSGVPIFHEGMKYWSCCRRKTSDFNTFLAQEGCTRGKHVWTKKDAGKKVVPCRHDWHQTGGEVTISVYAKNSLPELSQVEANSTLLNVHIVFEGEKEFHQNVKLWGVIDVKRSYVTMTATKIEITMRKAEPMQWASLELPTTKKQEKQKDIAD

Variants of: B1
Conditions: with chrd1_mouse Chordc1, Q9D1P4
MAMAEGERTECAETPRDEPPADGTLKRAEELKTQANDYFKAKDYENAIKFYSQAIELNPGNAIYYGNRSLAYLRTECYGYALGDATRAIELDKKYIKGYYARAASNMALGKFRAALRDYETVVKVKPNDKDAKMKYQECSKIVKQKAFERAIAGDEHRRSVVDSLDIESMTIEDEYSGPKLEDGKVTITFMKDLMQWYKDQKKLHRKCAYQILVQVKEVLCKLSTLVETTLKETEKITVCGDTHGQFYDLLNIFELNGLPSETNPYIFNGDFVDRGSFSVEVILTLFGFKLLYPDHFHLLRGNHETDNMNQIYGFEGEVKAKYTAQMYELFSEVFEWLPLAQCINGKVLIMHGGLFSEDGVTLDDIRKIERNRQPPDSGPMCDLLWSDPQPQNGRSVSKRGVSCQFGPDVTKAFLEENQLDYIIRSHEVKAEGYEVAHGGRCVTVFSAPNYCDQMGNKASYIHLQGSDLRPQFHQFTAVPHPNVKPMAYANTLLQLGMM [R101A] was tested, and the “effect of a mutation on the interaction” value was “disrupting interaction”.

Variants of: B1
Conditions: with chrd1_mouse Chordc1, Q9D1P4
Remark: another data set of the same source
MAMAEGERTECAETPRDEPPADGTLKRAEELATQANDYFKAKDYENAIKFYSQAIELNPGNAIYYGNRSLAYLRTECYGYALGDATRAIELDKKYIKGYYRRAASNMALGKFRAALRDYETVVKVKPNDKDAKMKYQECSKIVKQKAFERAIAGDEHRRSVVDSLDIESMTIEDEYSGPKLEDGKVTITFMKDLMQWYKDQKKLHRKCAYQILVQVKEVLCKLSTLVETTLKETEKITVCGDTHGQFYDLLNIFELNGLPSETNPYIFNGDFVDRGSFSVEVILTLFGFKLLYPDHFHLLRGNHETDNMNQIYGFEGEVKAKYTAQMYELFSEVFEWLPLAQCINGKVLIMHGGLFSEDGVTLDDIRKIERNRQPPDSGPMCDLLWSDPQPQNGRSVSKRGVSCQFGPDVTKAFLEENQLDYIIRSHEVKAEGYEVAHGGRCVTVFSAPNYCDQMGNKASYIHLQGSDLRPQFHQFTAVPHPNVKPMAYANTLLQLGMM [K32A] was tested, and the “effect of a mutation on the interaction” value was “disrupting interaction”.

Reference: IntAct's records for PubMed 16083881
